Data taken from paper PMC10397247.

Key:
Experiment in all cases: two-hybrid library CCmax;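 note: natural log of median RNA to DNA barcode read ratio; higher means stronger binding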
[1] = target: T1, 4H3094-AA; settings: mean of both orientations
T1 chain: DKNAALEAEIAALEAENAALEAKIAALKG

[2] = target: T2, P6-AA-12HGe-Q; settings: mean of both orientations
T2 chain: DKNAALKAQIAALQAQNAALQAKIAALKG

[3] = target: T3, P6-AA-1HAA-L; settings: mean of both orientations
T3 chain: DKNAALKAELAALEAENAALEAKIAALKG

[4] = target: T4, P6-AA-1HGe-D; settings: mean of both orientations
T4 chain: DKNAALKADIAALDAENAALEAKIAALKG

[5] = target: T5, P6-AA-1HGe-M
T5 chain: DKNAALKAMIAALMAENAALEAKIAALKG

[6] = target: T6, P6-AA-1HGe-T; settings: mean of both orientations
T6 chain: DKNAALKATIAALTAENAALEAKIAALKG

[7] = target: T7, P6-AA-1HGe-W; settings: mean of both orientations
T7 chain: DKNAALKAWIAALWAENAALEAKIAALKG

[8] = target: T8, P5-AA-12HGe-A; settings: mean of both orientations
T8 chain: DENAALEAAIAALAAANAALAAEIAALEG

[9] = target: T9, P5-AA-12HGe-E; settings: mean of both orientations
T9 chain: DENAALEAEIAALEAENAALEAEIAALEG

[10] = target: T10, P5-AA-12HGe-Q; settings: mean of both orientations
T10 chain: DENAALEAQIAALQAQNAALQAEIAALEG

[11] = target: T11, P5-AA-12HGe-T; settings: mean of both orientations
T11 chain: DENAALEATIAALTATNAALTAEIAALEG

[12] = target: T12, P5-AA-12HGe-W; settings: mean of both orientations
T12 chain: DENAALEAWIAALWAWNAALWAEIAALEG

[13] = target: T13, P5-AA-1HAA-H; settings: mean of both orientations
T13 chain: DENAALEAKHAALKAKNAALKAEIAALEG

[14] = target: T14, P5-AA-1HGe-Q; settings: mean of both orientations
T14 chain: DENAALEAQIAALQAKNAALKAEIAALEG

[15] = target: T15, APC4011-AA; settings: mean of both orientations
T15 chain: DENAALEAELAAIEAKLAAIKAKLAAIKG

[16] = target: T16, APC5383-AA; settings: mean of both orientations
T16 chain: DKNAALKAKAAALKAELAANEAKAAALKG

[17] = target: T17, APC7099-AA; settings: mean of both orientations
T17 chain: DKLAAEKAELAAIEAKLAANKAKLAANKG

[18] = target: T18, APC8191-AA; settings: mean of both orientations
T18 chain: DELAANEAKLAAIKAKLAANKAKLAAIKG

[19] = target: T19, P6-AA-12HAA-H; settings: mean of both orientations
T19 chain: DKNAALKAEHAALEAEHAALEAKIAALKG

[20] = target: T20, P6-AA-12HAA-L; settings: mean of both orientations
T20 chain: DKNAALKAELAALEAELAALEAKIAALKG

[21] = target: T21, 4H122-AA; settings: mean of both orientations
T21 chain: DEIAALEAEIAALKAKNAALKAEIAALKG

[22] = target: T22, 4H1405-AA; settings: mean of both orientations
T22 chain: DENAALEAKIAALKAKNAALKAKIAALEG

[23] = target: T23, 4H2211-AA; settings: mean of both orientations
T23 chain: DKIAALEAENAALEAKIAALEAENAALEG

[24] = target: T24, 4H2614-AA; settings: mean of both orientations
T24 chain: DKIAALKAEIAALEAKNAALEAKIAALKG

[25] = target: T25, 4H2687-AA; settings: mean of both orientations
T25 chain: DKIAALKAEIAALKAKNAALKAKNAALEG

[26] = target: T26, 4H2726-AA; settings: mean of both orientations
T26 chain: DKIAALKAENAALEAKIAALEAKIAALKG

[27] = target: T27, 4H2873-AA; settings: mean of both orientations
T27 chain: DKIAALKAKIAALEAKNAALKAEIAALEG

[28] = target: T28, 4H2935-AA; settings: mean of both orientations
T28 chain: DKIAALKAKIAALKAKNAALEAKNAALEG

[29] = target: T29, 4H4033-AA; settings: mean of both orientations
T29 chain: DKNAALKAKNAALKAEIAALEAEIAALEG

[30] = target: T30, O1-AA; settings: mean of both orientations
T30 chain: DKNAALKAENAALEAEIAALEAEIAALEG

[31] = target: T31, O3-AA; settings: mean of both orientations
T31 chain: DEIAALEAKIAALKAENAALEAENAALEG

[32] = target: T32, 4H1064-AA
T32 chain: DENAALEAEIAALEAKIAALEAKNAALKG

[33] = target: T33, 4H1348-AA; settings: mean of both orientations
T33 chain: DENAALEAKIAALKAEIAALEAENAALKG

[34] = target: T34, 4H2248-AA; settings: mean of both orientations
T34 chain: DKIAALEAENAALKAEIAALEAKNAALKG

[35] = target: T35, 4H3417-AA; settings: mean of both orientations
T35 chain: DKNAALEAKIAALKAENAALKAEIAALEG

[36] = target: T36, 4H3446-AA; settings: mean of both orientations
T36 chain: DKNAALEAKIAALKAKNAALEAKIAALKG

[37] = target: T37, 4H3709-AA; settings: mean of both orientations
T37 chain: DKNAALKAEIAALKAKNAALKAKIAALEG

[38] = target: T38, 4H391-AA; settings: mean of both orientations
T38 chain: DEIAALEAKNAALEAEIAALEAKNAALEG

[39] = target: T39, 4H478-AA; settings: mean of both orientations
T39 chain: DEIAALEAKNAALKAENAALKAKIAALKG

[40] = target: T40, 4H2600-AA; settings: mean of both orientations
T40 chain: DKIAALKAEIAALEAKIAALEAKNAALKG

[41] = target: T41, 4H3365-AA; settings: mean of both orientations
T41 chain: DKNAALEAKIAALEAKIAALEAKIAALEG

[42] = target: T42, 4H486-AA; settings: mean of both orientations
T42 chain: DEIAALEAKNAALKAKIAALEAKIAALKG

B1: 4H249-AA (peptide)
chain: DEIAALEAENAALKAKNAALKAEIAALEG
interaction score [1]: -0.0288

B2: 4H1401-AA (peptide)
chain: DENAALEAKIAALKAKNAALKAEIAALEG
interaction score [2]: 1.69 | interaction score [3]: 2.1 | interaction score [4]: 1.88 | interaction score [5]: 2.24 | interaction score [6]: 2.05 | interaction score [7]: 1.14

B3: 4H3606-AA (peptide)
chain: DKNAALKAEIAALEAENAALEAKIAALKG
interaction score [8]: 0.833 | interaction score [9]: 0.858 | interaction score [10]: 1.98 | interaction score [11]: 1.23 | interaction score [12]: 1.04 | interaction score [13]: 2.02 | interaction score [14]: 2.38

B4: 4H1845-AA (peptide)
chain: DENAALKAKIAALEAKNAALEAKIAALEG
interaction score [15]: -1.65 | interaction score [16]: -1.57 | interaction score [17]: -1.48 | interaction score [18]: -1.67

B5: 4H1385-AA (peptide)
chain: DENAALEAKIAALKAKIAALKAEIAALEG
interaction score [19]: 1.75 | interaction score [20]: 2.03

B6: 4H1153-AA (peptide)
chain: DENAALEAENAALEAEIAALEAEIAALEG
interaction score [21]: -1.61

B7: 4H1350-AA (peptide)
chain: DENAALEAKIAALKAEIAALEAKIAALKG
interaction score [22]: -0.893 | interaction score [23]: -1.32 | interaction score [24]: -0.142 | interaction score [25]: -0.889 | interaction score [26]: -0.0467 | interaction score [27]: 1.38 | interaction score [28]: -0.765 | interaction score [29]: -0.0842

B8: 4H171-AA (peptide)
chain: DEIAALEAENAALEAKIAALKAENAALEG
interaction score [30]: -1.52 | interaction score [31]: -1.73

B9: 4H1064-AA (peptide)
chain: DENAALEAEIAALEAKIAALEAKNAALKG
interaction score [32]: 0.0437 | interaction score [33]: 1.13 | interaction score [34]: -1.34 | interaction score [35]: -1.43 | interaction score [36]: -1.11 | interaction score [37]: -0.57 | interaction score [38]: -1.37 | interaction score [39]: -1.56

B10: 4H1257-AA (peptide)
chain: DENAALEAENAALKAKIAALKAEIAALEG
interaction score [40]: 0.518 | interaction score [41]: -1.46 | interaction score [42]: 1.54
